These results are taken from publication PMC12427885 (Foods, 2025).

The test system of one data set is NCCc1ccc(O)cc1. Description: purified protein. The note with it: apparent, 25 mM potassium phosphate pH 6.8, 37 °C, 0.005-3 mM tyramine, partially purified enzyme.
Data set [1] concerns the target diamine oxidase from Glutamicibacter halophytocola (DAO-GH) (Glutamicibacter halophytocola). Description: SEC; HiLoad 16/600 Superdex 200 prep grade; 50 mM sodium phosphate, 150 mM NaCl, pH 7; 1 mL/min; HIC-purified (partially purified) DAO-GH; fractions analysed for DAO activity; calibrated with the high molecular weight gel filtration kit; native mass compared with the monomer's mass.

The next data set has as its target T1, DAO-GH (Glutamicibacter halophytocola, UniProt Z9MBQ1XXX8).
T1 construct: gene from G. halophytocola isolate, codon-optimized, intracellular expression in Komagataella phaffii; partially purified (PEI, ammonium sulfate, HIC)
Description: DA-67/horseradish peroxidase coupled H2O2 assay, […] nm; Michaelis-Menten nonlinear regression. The class given is biochemical. The settings on record: substrate inhibition by tyramine; second site; 25 mM potassium phosphate pH 6.8, 37 °C; partially purified enzyme.

T1 sequence (Z9MBQ1XXX8 1-653): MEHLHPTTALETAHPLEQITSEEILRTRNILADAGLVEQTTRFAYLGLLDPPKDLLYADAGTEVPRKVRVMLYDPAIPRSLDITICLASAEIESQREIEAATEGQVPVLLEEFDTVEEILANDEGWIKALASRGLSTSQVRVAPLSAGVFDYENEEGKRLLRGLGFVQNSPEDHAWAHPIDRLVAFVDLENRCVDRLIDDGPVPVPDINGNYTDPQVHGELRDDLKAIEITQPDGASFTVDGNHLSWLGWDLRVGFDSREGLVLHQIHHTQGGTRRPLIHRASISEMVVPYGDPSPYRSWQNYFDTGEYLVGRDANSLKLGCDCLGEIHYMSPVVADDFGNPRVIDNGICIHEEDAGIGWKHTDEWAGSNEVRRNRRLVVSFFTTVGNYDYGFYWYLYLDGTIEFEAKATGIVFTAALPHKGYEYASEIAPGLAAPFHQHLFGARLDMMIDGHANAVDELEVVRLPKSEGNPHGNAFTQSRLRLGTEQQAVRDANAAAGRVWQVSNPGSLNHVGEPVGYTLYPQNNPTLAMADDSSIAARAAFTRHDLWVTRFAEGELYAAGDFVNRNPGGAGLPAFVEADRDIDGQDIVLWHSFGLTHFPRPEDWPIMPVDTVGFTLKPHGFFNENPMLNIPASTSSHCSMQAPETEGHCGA

For the compound DAO-GH (Glutamicibacter halophytocola), the Km in the data set with NCCc1ccc(O)cc1 turned out to be 9 ± 0.2 µM. “diamine oxidase from Glutamicibacter halophytocola (DAO-GH) (enzyme)” came in with a stoichiometry N in data set [1] of 2.

`NCCc1ccc(O)cc1` [tyramine]: the Ki at DAO-GH came to 10.4 ± 4.0 mM.
